Data set [1] deals with Endogenous Ras of HEK-293T cells.

Chain of GST-Ras [GST: P08515] (P08515 whole entry, looked up): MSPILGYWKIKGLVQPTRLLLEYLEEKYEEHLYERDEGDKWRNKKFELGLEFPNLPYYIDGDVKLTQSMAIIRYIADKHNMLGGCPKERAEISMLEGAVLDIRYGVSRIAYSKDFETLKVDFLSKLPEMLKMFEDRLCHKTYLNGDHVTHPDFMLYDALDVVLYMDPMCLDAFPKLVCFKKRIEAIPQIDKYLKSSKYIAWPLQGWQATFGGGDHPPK

B1: Isolated CDC25 domain of GRF4 (protein)
chain: SLLQLSTVEVATQLSMRNFELFRNIEPTEYIDDLFKLRSKTSCANLKRFEEVINQETFWVASEILRETNQLKRMKIIKHFIKIALHCRECKNFNSMFAIISGLNLAPVARLRTTWEKLPNKYEKLFQDLQDLFDPSRNMAKYRNVLNSQNLQPPIIPLFPVIKKDLTFLHEGNDSKVDGLVNFEKLRMIAKEIRHVGRMASVNMDPALMFRTRKKKWRSLGSLSQGSTNATVLDVAQTGGHKKRVRRSSFLNAKKLYEDAQMARKVKQYLSNLELEMDEESLQTLSLQCEPATNT
Consider B1, for which, in the data set with GST-Ras [GST: P08515], the “Ras activation in vitro (GEF assay)” value is reported as “we were unable to demonstrate significant activation of Ras by the isolated CDC25 domain of GRF4”.

B2: Flag-tagged full-length GRF4 (protein)
chain: MKPLAIPANHGVMGQQEKHSLPADFTKLHLTDSLHPQVTHVSSSHSGCSITSDSGSSSLSDIYQATESEAGDMDLSGLPETAVDSEDDDDEEDIERASDPLMSRDIVRDCLEKDPIDRTDDDIEQLLEFMHQLPAFANMTMSVRRELCAVMVFAVVERAGTIVLNDGEELDSWSVILNGSVEVTYPDGKAEILCMGNSFGVSPTMDKEYMKGVMRTKVDDCQFVCIAQQDYCRILNQVEKNMQKVEEEGEIVMVKEHRELDRTGTRKGHIVIKGTSERLTMHLVEEHSVVDPTFIEDFLLTYRTFLSSPMEVGKKLLEWFNDPSLRDKVTRVVLLWVNNHFNDFEGDPAMTRFLEEFENNLEREKMGGHLRLLNIACAAKAKRRLMTLTKPSREAPLPFILLGGSEKGFGIFVDSVDSGSKATEAGLKRGDQILEVNGQNFENIQLSKAMEILRNNTHLSITVKTNLFVFKELLTRLSEEKRNGAPHLPKIGDIKKASRYSIPDLAVDVEQVIGLEKVNKKSKANTVGGRNKLKKILDKTRISILPQKPYNDIGIGQSQDDSIVGLRQTKHIPTALPVSGTLSSSNPDLLQSHHRILDFSATPDLPDQVLRVFKADQQSRYIMISKDTTAKEVVIQAIREFAVTATPDQYSLCEVSVTPEGVIKQRRLPDQLSKLADRIQLSGRYYLKNNMETETLCSDEDAQELLRESQISLLQLSTVEVATQLSMRNFELFRNIEPTEYIDDLFKLRSKTSCANLKRFEEVINQETFWVASEILRETNQLKRMKIIKHFIKIALHCRECKNFNSMFAIISGLNLAPVARLRTTWEKLPNKYEKLFQDLQDLFDPSRNMAKYRNVLNSQNLQPPIIPLFPVIKKDLTFLHEGNDSKVDGLVNFEKLRMIAKEIRHVGRMASVNMDPALMFRTRKKKWRSLGSLSQGSTNATVLDVAQTGGHKKRVRRSSFLNAKKLYEDAQMARKVKQYLSNLELEMDEESLQTLSLQCEPATNTLPKNPGDKKPVKSETSPVAPRAGSQQKAQSLPQPQQQPPPAHKINQGLQVPAVSLYPSRKKVPVKDLPPFGINSPQALKKILSLSEEGSLERHKKQAEDTISNASSQLSSPPTSPQSSPRKGYTLAPSGTVDNFSDSGHSEISSRSSIVSNSSFDSVPVSLHDERRQRHSVSIVETNLGMGRMERRTMIEPDQYSLGSYAPMSEGRGLYATATVISSPSTEELSQDQGDRASLDAADSGRGSWTSCSSGSHDNIQTIQHQRSWETLPFGHTHFDYSGDPAGLWASSSHMDQIMFSDHSTKYNRQNQSRESLEQAQSRASWASSTGYWGEDSEGDTGTIKRRGGKDVSIEAESSSLTSVTTEETKPVPMPAHIAVASSTTKGLIARKEGRYREPPPTPPGYIGIPITDFPEGHSHPARKPPDYNVALQRSRMVARSSDTAGPSSVQQPHGHPTSSRPVNKPQWHKPNESDPRLAPYQSQGFSTEEDEDEQVSAV
B2: the “fold Ras activation in vitro (bound 32P-GTP, 30 min, against Ras without GRFs set to 1)” value in the data set with GST-Ras [GST: P08515] is on record as “˜2.9 fold activation in 30 min”. In data set [1], the “active Ras (Ras-GTP) precipitated with GST-Raf1-RBD from HEK-293T lysates” value is listed as “heterologous expression of GRF4 in HEK-293T cells led to a weak activation of endogenous Ras, which was greatly enhanced following stimulation of cells with ... 8-Br-cAMP”.
